Where no end group is shown, it is not given here.
Key:
[1] = biological target: T1, CD19-CD28ζ CAR encoded by circular RNA formed from DNA Template F; experiment: flow cytometry, live T cells 24 h after electroporation with 50 ng circRNA per 0.1x10^6 T cells; second of two values
T1 construct: also called Construct F
From the text: (§1) Donor T cells were thawed and activated with anti-CD3/CD28 solutions. Three days after activation, the cells were washed. […] Circular RNAs were formed from DNA templates present in Table 28 and/or 30. The cells were given a commercially available soluble BCMA detection reagent containing R-phycoerythrin (PE) fluorophore (e.g., from AcroBiosystems, Delaware), anti-Whitlow PE detection reagent, or anti-G4S linker detection reagent (e.g., G4S-AF647).

[2] = biological target: T2, BCMA CAR encoded by circular RNA formed from DNA Template I; experiment: as above
T2 construct: also called Construct I
From the text: as §1

[3] = biological target: T3, BCMA CAR encoded by circular RNA formed from DNA Template H; experiment: as above
T3 construct: also called Construct H
From the text: as §1

[4] = biological target: T4, BCMA-41BBζ CAR encoded by circular RNA formed from DNA Template A; experiment: as above
T4 construct: also called Construct A
From the text: as §1

[5] = biological target: T5, BCMA CAR encoded by circular RNA formed from DNA Template G; experiment: as above
T5 construct: also called Construct G
From the text: as §1

[6] = biological target: T6, BCMA CAR encoded by circular RNA formed from DNA Template J; experiment: as above
T6 construct: also called Construct J
From the text: as §1

[7] = biological target: T1, CD19-CD28ζ CAR encoded by circular RNA …; experiment: flow cytometry, live T cells 24 h after electroporation with 50 ng circRNA per 0.1x10^6 T cells; first of two values
From the text: as §1

[8] = biological target: T2, BCMA CAR encoded by circular RNA formed …; experiment: as above
From the text: as §1

[9] = biological target: T3, BCMA CAR encoded by circular RNA formed …; experiment: as above
From the text: as §1

[10] = biological target: T4, BCMA-41BBζ CAR encoded by circular RNA …; experiment: as above
From the text: as §1

[11] = biological target: T5, BCMA CAR encoded by circular RNA formed …; experiment: as above
From the text: as §1

[12] = biological target: T6, BCMA CAR encoded by circular RNA formed …; experiment: as above
From the text: as §1

T2 sequence (chain, as listed by the source limits assumed): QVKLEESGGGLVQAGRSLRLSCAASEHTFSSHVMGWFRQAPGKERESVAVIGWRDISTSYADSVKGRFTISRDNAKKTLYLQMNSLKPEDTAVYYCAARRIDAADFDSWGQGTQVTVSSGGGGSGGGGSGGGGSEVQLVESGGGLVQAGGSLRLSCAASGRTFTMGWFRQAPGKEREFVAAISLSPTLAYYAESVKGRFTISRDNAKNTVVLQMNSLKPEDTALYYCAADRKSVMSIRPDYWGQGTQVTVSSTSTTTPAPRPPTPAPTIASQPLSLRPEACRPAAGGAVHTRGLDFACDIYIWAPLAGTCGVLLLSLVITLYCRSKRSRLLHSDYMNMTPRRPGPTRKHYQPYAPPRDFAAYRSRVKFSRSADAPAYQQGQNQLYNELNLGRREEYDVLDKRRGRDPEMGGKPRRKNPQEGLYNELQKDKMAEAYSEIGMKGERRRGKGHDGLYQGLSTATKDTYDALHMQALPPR
T1 sequence (chain, as listed by the source limits assumed): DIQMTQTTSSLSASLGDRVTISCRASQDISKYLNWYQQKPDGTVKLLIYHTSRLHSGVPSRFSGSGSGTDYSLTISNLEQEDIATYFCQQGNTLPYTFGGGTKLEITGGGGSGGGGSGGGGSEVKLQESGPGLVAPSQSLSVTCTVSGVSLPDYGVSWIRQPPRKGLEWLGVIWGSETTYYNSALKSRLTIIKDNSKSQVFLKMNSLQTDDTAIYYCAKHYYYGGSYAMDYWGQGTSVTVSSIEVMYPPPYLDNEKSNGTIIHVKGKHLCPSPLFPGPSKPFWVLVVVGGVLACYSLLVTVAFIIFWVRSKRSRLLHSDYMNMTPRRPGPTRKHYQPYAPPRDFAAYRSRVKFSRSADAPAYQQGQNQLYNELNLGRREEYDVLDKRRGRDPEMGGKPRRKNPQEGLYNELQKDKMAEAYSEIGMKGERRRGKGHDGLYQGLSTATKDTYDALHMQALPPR
T6 sequence (chain, as listed by the source limits assumed): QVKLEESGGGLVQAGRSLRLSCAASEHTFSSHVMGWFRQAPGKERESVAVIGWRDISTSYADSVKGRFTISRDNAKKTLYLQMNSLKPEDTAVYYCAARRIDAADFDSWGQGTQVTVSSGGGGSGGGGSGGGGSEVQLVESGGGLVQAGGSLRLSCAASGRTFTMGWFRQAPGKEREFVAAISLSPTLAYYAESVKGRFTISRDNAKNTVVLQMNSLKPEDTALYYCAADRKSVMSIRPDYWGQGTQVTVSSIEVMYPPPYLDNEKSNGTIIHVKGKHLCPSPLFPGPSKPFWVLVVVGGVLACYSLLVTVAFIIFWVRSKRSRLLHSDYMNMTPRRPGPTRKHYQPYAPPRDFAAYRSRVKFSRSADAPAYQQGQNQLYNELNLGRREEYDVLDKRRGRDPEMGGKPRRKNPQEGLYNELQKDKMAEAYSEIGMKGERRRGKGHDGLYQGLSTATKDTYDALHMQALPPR
T5 sequence (chain, as listed by the source limits assumed): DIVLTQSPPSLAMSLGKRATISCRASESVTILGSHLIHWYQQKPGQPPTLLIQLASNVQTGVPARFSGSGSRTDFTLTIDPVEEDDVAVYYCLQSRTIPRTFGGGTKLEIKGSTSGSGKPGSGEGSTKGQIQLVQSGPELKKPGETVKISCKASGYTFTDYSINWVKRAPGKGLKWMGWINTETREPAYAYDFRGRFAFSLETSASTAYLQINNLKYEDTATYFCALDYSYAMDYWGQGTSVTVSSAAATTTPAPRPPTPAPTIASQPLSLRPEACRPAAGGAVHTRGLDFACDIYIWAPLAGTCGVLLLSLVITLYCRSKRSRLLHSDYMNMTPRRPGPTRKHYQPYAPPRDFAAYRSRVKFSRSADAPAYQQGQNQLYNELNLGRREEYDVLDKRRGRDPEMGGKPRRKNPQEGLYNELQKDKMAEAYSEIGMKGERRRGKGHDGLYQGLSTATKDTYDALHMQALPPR
T4 sequence (chain, as listed by the source): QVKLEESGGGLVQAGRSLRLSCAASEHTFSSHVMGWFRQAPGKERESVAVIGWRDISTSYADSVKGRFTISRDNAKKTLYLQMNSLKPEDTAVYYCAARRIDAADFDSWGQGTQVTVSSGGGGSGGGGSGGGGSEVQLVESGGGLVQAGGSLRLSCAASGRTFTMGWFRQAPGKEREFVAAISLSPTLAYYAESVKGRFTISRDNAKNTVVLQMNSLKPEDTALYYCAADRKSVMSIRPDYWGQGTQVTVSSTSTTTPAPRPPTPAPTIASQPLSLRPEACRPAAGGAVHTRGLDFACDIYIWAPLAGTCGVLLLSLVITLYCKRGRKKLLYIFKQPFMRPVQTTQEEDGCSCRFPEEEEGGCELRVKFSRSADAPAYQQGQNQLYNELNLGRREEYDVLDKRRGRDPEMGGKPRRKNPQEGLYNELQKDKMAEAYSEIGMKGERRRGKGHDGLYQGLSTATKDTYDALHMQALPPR
T3 sequence (chain, as listed by the source limits assumed): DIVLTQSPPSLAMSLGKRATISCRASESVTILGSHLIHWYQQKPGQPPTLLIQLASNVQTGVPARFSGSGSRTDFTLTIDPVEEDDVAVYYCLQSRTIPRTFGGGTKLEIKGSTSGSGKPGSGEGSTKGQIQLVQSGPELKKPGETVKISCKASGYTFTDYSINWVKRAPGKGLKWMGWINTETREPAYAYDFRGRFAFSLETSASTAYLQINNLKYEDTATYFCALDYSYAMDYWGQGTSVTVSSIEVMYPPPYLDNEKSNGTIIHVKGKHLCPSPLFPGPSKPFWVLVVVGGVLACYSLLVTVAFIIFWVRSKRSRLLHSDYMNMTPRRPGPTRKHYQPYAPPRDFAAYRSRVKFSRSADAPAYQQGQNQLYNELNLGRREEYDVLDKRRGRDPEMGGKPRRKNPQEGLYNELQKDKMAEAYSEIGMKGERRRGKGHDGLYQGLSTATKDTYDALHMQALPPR

gMFI [1]: 81.5
gMFI [2]: 58000
gMFI [3]: 59700
gMFI [4]: 66300
gMFI [5]: 18900
gMFI [6]: 93400
gMFI [7]: 71.7
gMFI [8]: 57400
gMFI [9]: 57800
gMFI [10]: 61500
gMFI [11]: 18200
gMFI [12]: 84700
B1: soluble BCMA detection reagent containing R-phycoerythrin (PE) fluorophore (receptor, UniProt Q02223 1-54, looked up)
chain: MLQMAGQCSQNEYFDSLLHACIPCQLRCSSNTPPLTCQRYCNASVTNSVKGTNA
modifications: cysteine pairing not given here; also: conjugated to R-phycoerythrin (PE) fluorophore, site not given here
notes: also called soluble BCMA-PE; sBCMA-PE

Source: patent publication US20250376534A1 (ORNA THERAPEUTICS, published 2025)
